Data taken from paper PMC10856354 (International Journal of Molecular Sciences, 2024).
Where “and” joins values, the source holds several entries; their conditions need not be identical. Equal entries are not always repeated. Where a SMILES comes first, the peptide text is derived from it. Bridges are numbered along the chain shown (N, C = ends). [ ]: non-standard residue; d: D form. The star is where a group is joined. DOTA = O=C(O)CN1CCN(CC(=O)O)CCN(CC(=O)*)CCN(CC(=O)O)CC1

What was measured:
hSST2R = molecular target: T1, hSST2R (Homo sapiens, UniProt P30874); experiment: Immunofluorescence microscopy-based internalization assay in HEK293-hSST2R cells; type: cell-based; conditions: 1 µM, 30 min at 37 °C
T1 construct: expressed in transfected cells
Procedure: Figure 3 Agonist stimulated hSST2R-internalization in HEK293-hSST2R cells determined by immunofluorescence microscopy.
An immunofluorescence microscopy-based internalization assay for hSST2R was performed in HEK293-hSST2R cells, grown on poly-DLys (20 μg/mL) (Sigma-Aldrich, St. Louis, MO, USA) coated 35-mm four-well plates (Cellstar, Greiner Bio-One GmbH, Frickenhausen, Germany). […] HEK293-hSST2R cells treated with vehicle alone were used as a negative control. The cells were then rinsed twice with PS (100 mM phosphate buffer containing 0.15 M sucrose), fixed and permeabilized for 7 min with cold methanol (−20 °C), rinsed twice with PS, and then blocked for 60 min at room temperature with PS containing 0.1% BSA. Next, cells were incubated for 60 min at room temperature with the hSST2R-specific primary antibody R2-88 (provided by Dr. A. Schönbrunn, Houston, TX, USA) diluted 1:1000 in PS and washed 3 × 5 min with PS containing 0.1% BSA. The cells were incubated for 60 min at room temperature in the dark with the secondary antibody Alexa Fluor 488 goat anti-rabbit IgG (H+ L) (Molecular Probes, Inc., Eugene, OR, USA) diluted in PS (1:600), washed 3 × 5 min with PS containing 0.1% BSA, embedded with PS/glycerol 1:1, and covered with a glass cover slip. The cells were imaged using a Leica DM RB immunofluorescence microscope (Leica, Deerfield, IL, USA) and an Olympus DP10 camera (Olympus Corporation, Shinjuku, Tokyo, Japan).

[1] = mice, blood collected 5 min pi, radio-HPLC
Procedure: At 5 min pi blood (~1mL) was collected from the heart of mice in a prechilled insulin syringe and swiftly placed in an ice-cold polypropylene tube containing EDTA on ice. Blood samples were centrifuged at 2000× g at 4 °C for 10 min. […] The mixture was centrifuged for 10 min at 15,000× g at 4 °C. […] An RP18 Symmetry Shield cartridge column (5 μm, 3.9 mm × 20 mm, Waters, Vienna, Austria) was eluted at a 1 mL/min flow rate with the following gradient: 100%A/0%B to 60%A/40%B in 40 min, whereby A = 0.1% aqueous TFA and B = MeCN (system 3).

[2] = tested on: AR4-2J tumor-bearing SCID mice (rSST2R-positive); experiment: in vivo; conditions: AR4-2J mice, 4 h pi, block: co-injection of 100 nmol TATE; mean ± sd, n = 4
Procedure: (§1) For biodistribution experiments, male SCID mice of 7 weeks of age (15–20 g) on arrival day (NCSR ‘‘Demokritos’’ Animal House, Athens, Greece) were subcutaneously injected in their flanks with a suspension of AR4-2J cells (150 μL inocula of ~1 × 10^7 cells in PBS). The animals were kept under aseptic conditions for 12 days until well-palpable tumors were grown at the inoculation site. […] In an additional group, animals were co-injected with excess TATE (100 nmol) together with the radioligand (blocked animals) and were sacrificed at 4 h pi. Blood was immediately collected, and the organs of interest were excised and weighed. Sample radioactivity was measured in the γ-counter using proper standards of the injected activity. Data were calculated as %IA/g with the aid of standard solutions and represent mean values ± sd. For comparisons, a Two-way ANOVA with Tukey’s post hoc analysis was applied (PRISM^TM GraphPad—6 Software, San Diego, CA, USA). p values < 0.05 were considered statistically significant.

in vivo [3] = conditions: male, SCID, mouse, iv, total radioactivity
Procedure: as §1

[4] = tested on: HEK293-hSST3R tumor-bearing SCID mice; experiment: in vivo; conditions: HEK293-hSST3R mice, 4 h pi, block: co-injection of 80 nmol KE108; mean ± sd, n = 4
Procedure: (§2) For the second biodistribution experiments, male SCID mice of 7 weeks of age (15–20 g) on arrival day (NCSR ‘‘Demokritos’’ Animal House, Athens, Greece) were subcutaneously injected in their flanks with a suspension of HEK293-hSST3R cells (150 μL inocula of ~3 × 10^7 cells in PBS). The animals were kept under aseptic conditions for 3–4 weeks until well-palpable tumors were grown at the inoculation site. […] Mice were sacrificed at 4 h pi, and biodistribution analyses were conducted, as described above.

in vivo [5] = conditions: male, SCID, mouse, iv, total radioactivity; remark: listed apart in the source
Procedure: as §2

[6] = AR4-2J tumor, 10 pmol total peptide
[7] = pancreas, 10 pmol total peptide

T1 sequence (P30874 whole entry): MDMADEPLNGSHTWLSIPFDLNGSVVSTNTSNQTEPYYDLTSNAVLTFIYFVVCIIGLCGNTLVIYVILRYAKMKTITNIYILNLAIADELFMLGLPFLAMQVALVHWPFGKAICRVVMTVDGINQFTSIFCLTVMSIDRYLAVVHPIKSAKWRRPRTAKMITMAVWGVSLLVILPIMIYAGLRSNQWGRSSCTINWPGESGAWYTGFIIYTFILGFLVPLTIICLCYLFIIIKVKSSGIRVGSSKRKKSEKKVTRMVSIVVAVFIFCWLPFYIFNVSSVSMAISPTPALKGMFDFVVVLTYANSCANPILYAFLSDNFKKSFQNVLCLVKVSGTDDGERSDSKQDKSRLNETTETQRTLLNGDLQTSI

DOTA-Ala^1-Gly^2-c[Cys^3-Lys^4-Asn^5-Phe^6-Phe^7-Trp^8-Lys^9-Thr^10-Phe^11-Thr^12-Ser^13-Cys^14-OH] [AT1S, reference compound]
ligand-induced hSST2R internalization (agonism) (hSST2R): clearly able to trigger the internalization of hSST2R

C[C@H](NC(=O)CN1CCN(CC(=O)O)CCN(CC(=O)O)CCN(CC(=O)O)CC1)C(=O)NCC(=O)N[C@H]1CSSC[C@@H](C(=O)O)NC(=O)[C@H](CO)NC(=O)[C@@H]2CSSC[C@H](NC(=O)[C@H](CCCCN)NC1=O)C(=O)N[C@@H](Cc1ccccc1)C(=O)N[C@@H](Cc1ccccc1)C(=O)N[C@H](Cc1c[nH]c3ccccc13)C(=O)N[C@@H](CCCCN)C(=O)N[C@@H]([C@@H](C)O)C(=O)N[C@@H](Cc1ccccc1)C(=O)N2 [[^111In]In-AT6S, metal not drawn] ({DOTA}-AGCKCFF[dW]KTFCSC-OH; disulfide 3-14, 5-12)
% intact radioligand in peripheral blood [1]: > 98% and > 96%
Tumor uptake [2]: 0.8 ± 0.05 %IA/g
tissue uptake at 4 h (in vivo [3]; [6]): 1.9 ± 0.1 %ID/g
tissue uptake at 24 h (in vivo [3]; [6]): 0.8 ± 0.1 %ID/g
tissue uptake at 4 h (in vivo [3]; blood, 10 pmol total peptide): 0.3 ± 0.01 %ID/g
tissue uptake at 24 h (in vivo [3]; blood, 10 pmol total peptide): 0.07 %ID/g
tissue uptake at 24 h (in vivo [3]; femur, 10 pmol total peptide): 0.6 ± 0.1 %ID/g
tissue uptake at 4 h (in vivo [3]; heart, 10 pmol total peptide): 0.5 ± 0.05 %ID/g
tissue uptake at 24 h (in vivo [3]; heart, 10 pmol total peptide): 0.3 ± 0.06 %ID/g
tissue uptake at 4 h (in vivo [3]; heart, with TATE 100 nmol co-injected (in vivo SST2R blockade)): 0.7 ± 0.1 %ID/g
tissue uptake at 24 h (in vivo [3]; intestines, 10 pmol total peptide): 0.6 ± 0.08 %ID/g
tissue uptake at 24 h (in vivo [3]; kidneys, 10 pmol total peptide): 34.1 ± 3.9 %ID/g
tissue uptake at 4 h (in vivo [3]; kidneys, with TATE 100 nmol co-injected (in vivo SST2R blockade)): 49.5 ± 10.5 %ID/g
tissue uptake at 4 h (in vivo [3]; liver, 10 pmol total peptide): 16.6 ± 1.5 %ID/g
tissue uptake at 24 h (in vivo [3]; liver, 10 pmol total peptide): 12.1 ± 2.4 %ID/g
tissue uptake at 24 h (in vivo [3]; muscle, 10 pmol total peptide): 0.1 ± 0.03 %ID/g
tissue uptake at 4 h (in vivo [3]; [7]): 0.5 ± 0.1 %ID/g
tissue uptake at 24 h (in vivo [3]; [7]): 0.4 ± 0.07 %ID/g
tissue uptake at 24 h (in vivo [3]; spleen, 10 pmol total peptide): 6 ± 1.1 %ID/g
tissue uptake at 4 h (in vivo [3]; stomach, 10 pmol total peptide): 0.8 ± 0.04 %ID/g
tissue uptake at 24 h (in vivo [3]; stomach, 10 pmol total peptide): 0.3 ± 0.03 %ID/g
tissue uptake at 4 h (in vivo [3]; stomach, with TATE 100 nmol co-injected (in vivo SST2R blockade)): 0.5 ± 0.2 %ID/g
Tumor uptake [4]: 0.3 ± 0.05 %IA/g
tissue uptake at 4 h (in vivo [5]; HEK293-hSST3R tumor, 10 pmol total peptide): 3.7 ± 0.4 %ID/g
tissue uptake at 4 h (in vivo [5]; blood, 10 pmol total peptide): 0.3 ± 0.02 %ID/g
tissue uptake at 4 h (in vivo [5]; heart, 10 pmol total peptide): 0.5 ± 0.05 %ID/g
tissue uptake at 4 h (in vivo [5]; heart, with KE108 80 nmol co-injected (in vivo SST3R blockade)): 0.1 %ID/g
tissue uptake at 4 h (in vivo [5]; kidneys, with KE108 80 nmol co-injected (in vivo SST3R blockade)): 26.8 ± 5.4 %ID/g
tissue uptake at 4 h (in vivo [5]; liver, 10 pmol total peptide): 16.6 ± 1.5 %ID/g
tissue uptake at 4 h (in vivo [5]; [7]): 0.5 ± 0.04 %ID/g
tissue uptake at 4 h (in vivo [5]; stomach, 10 pmol total peptide): 0.8 ± 0.05 %ID/g
tissue uptake at 4 h (in vivo [5]; stomach, with KE108 80 nmol co-injected (in vivo SST3R blockade)): 0.1 ± 0.04 %ID/g
